Reference: publication PMC6637311, “Glyceraldehyde-3-Phosphate Dehydrogenase of Babesia microti Is a Plasminogen- and Actin-Binding Protein” (Frontiers in Veterinary Science, 2019)

Test system: O=C[C@H](O)COP(=O)(O)O
Assay: purified protein
Settings: 0.5 mM NAD+, 50 mM glycine, 50 mM KH2PO4, 5 mM EDTA, pH 9.5, 25 °C

Substance rBmGAPDH (Babesia microti strain RI) has a Km of 583 µM.
